Assays:
[1] = target: T1, human-mouse CD70 chimera chim-4 (Flag-TNC-CD70) (Mus musculus (Mouse), UniProt O55237 54-192); experiment: ELISA; chimera captured by anti-Flag mAb
T1 construct: also called chimera 4
T1 chain: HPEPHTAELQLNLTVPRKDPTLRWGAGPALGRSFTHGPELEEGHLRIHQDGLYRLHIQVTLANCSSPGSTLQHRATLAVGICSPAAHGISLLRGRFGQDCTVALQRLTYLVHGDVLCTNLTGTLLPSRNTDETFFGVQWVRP

[2] = target: T2, human CD70 expressed on the surface of cells (human, UniProt P32970 1-193); experiment: FACS MFI at 37 C, HH cells; reference SGN70
T2 construct: whole, on cells; also called cell surface expressed CD70; CD70 on cells
T2 sequence (looked up): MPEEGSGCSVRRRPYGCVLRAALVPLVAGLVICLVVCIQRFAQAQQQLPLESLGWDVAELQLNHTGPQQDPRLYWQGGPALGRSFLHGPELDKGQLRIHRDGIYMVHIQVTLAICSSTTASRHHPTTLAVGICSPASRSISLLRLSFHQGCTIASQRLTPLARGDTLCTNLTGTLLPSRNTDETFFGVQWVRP
Method: (§1) Several cancer cell lines were tested by FACS analysis for binding of ARGX-110 and SGN70 (described in US2010/0129362) at saturating mAb concentrations (at least 2 μg/ml). This was either done at 4° C. (1 hour incubation of cells with mAbs) or at 37° C. (15 minutes incubation of cells with mAbs). Binding was detected using anti-hIgG1-Fc-FITC (AF006, Binding Site) or anti-hIgG1-Fc-PE antibody (eBioscience, 12-4998). Fluorescence was measured using a flow cytometer.

[3] = target: T2, human CD70 expressed on the surface of …; experiment: FACS MFI at 37 C, A549 cells; reference SGN70
Method: as §1

[4] = target: T2, human CD70 expressed on the surface of …; experiment: FACS MFI at 37 C, JVM-2 cells; reference SGN70
Method: as §1

[5] = target: T2, human CD70 expressed on the surface of …; experiment: FACS MFI at 37 C, Caki-1 cells; reference SGN70
Method: as §1

[6] = target: T2, human CD70 expressed on the surface of …; experiment: FACS MFI at 37 C, SU-DHL-6 cells; reference SGN70
Method: as §1

[7] = target: T2, human CD70 expressed on the surface of …; experiment: flow cytometry on U266 cells, goat anti human IgG1 FITC [panel U266]
[8] = target: T3, rhesus CD70 on LCL8664 cells (rhesus, UniProt F7GPA5 123-316); experiment: flow cytometry on rhesus LCL8664 cells, goat anti human IgG1 FITC [panel Rhesus monkey]
T3 construct: whole, on cells
T3 sequence: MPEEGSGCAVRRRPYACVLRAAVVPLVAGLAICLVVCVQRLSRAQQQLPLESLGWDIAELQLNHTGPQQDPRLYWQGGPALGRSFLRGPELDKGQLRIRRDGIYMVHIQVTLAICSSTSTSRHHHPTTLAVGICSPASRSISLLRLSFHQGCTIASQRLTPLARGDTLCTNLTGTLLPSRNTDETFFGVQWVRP

[9] = target: T2, human CD70 expressed on the surface of …; experiment: flow cytometry on SU-DHL-6 cells, 1 h at 4 °C, anti-hIgG1-Fc-FITC or anti-hIgG-Fc-PE [panel SU-DHL-6]
Method: […] This was either done at 4° C. (1 hour incubation of cells with mAbs) or at 37° C. (15 minutes incubation of cells with mAbs). Binding was detected using anti-hIgG1-Fc-FITC (AF006, Binding Site) or anti-hIgG1-Fc-PE antibody (eBioscience, 12-4998). Fluorescence was measured using a flow cytometer.

B1: ARGX-110 (non-fucosylated 41D12 human IgG1) (antibody, V domains shown)
VH: EVQLVESGGGLVQPGGSLRLSCAASGFTFSVYYMNWVRQAPGKGLEWVSDINNEGGTTYYADSVKGRFTISRDNSKNSLYLQMNSLRAEDTAVYYCARDAGYSNHVPIFDSWGQGTLVTVSS
VL: QAVVTQEPSLTVSPGGTVTLTCGLKSGSVTSDNFPTWYQQTPGQAPRLLIYNTNTRHSGVPDRFSGSILGNKAALTITGAQADDEAEYFCALFISNPSVEFGGGTQLTVLG
notes: also called 41D12 (ARGX-110)
binding result [1]: no binding (tested: dilution series from 10 µg/ml) | Signal in FACS of ARGX-110/signal in FACS of SGN70 [2]: 1.7 ratio | Signal in FACS of ARGX-110/signal in FACS of SGN70 [3]: 3.8 ratio | Signal in FACS of ARGX-110/signal in FACS of SGN70 [4]: 2.4 ratio | Signal in FACS of ARGX-110/signal in FACS of SGN70 [5]: 1.9 ratio | Signal in FACS of ARGX-110/signal in FACS of SGN70 [6]: 2.4 ratio | EC50 (read off the curve) [7]: ~0.1 µg/mL | EC50 (read off the curve) [8]: ~0.2 µg/mL | EC50 (read off the curve) [9]: ~2 µg/mL

Source: US20150266963A1 (ARGEN X B V, published 2015)
